Results: US20230242671A1 (Eli Lilly, published 2023)

How the values were obtained:
Protein A = biological target: T1, Protein A (UniProt P38507 37-327, biotin (site not stated)); assay: ELISA, antibody titrated on goat anti-human-kappa, Biotin-Protein A at 0.5 ug/ml
T1 construct: Reagent; also called Biotin-Protein A; Protein A ligand
Procedure: Binding of the heavy chain Fc region formats of Table 1b for exemplified IgG heteromabs to Protein A ligand may be assessed via ELISA. Briefly, 96-well flat bottom Elisa plates are coated with 2 ug/mL goat anti-human-kappa protein at 100 ul/well and incubated overnight at 4° C. The following day, plates are washed 3× with wash buffer 0.05% PBS-Tween 20 (PBS-T)) and blocked for 1 hr with blocking buffer (casein, 200 µL/well) at room temperature (RT). Plates are washed 3× with wash buffer, and binding proteins (as shown in Table 4) are added to individual wells at 10 μg/mL and serially diluted 1:3, at a volume of 100 uL/well in PBS-T. Plates are incubated at RT for 1 hr, and washed 3× with wash buffer. Biotin-Protein A at 0.5 ug/ml is added at 100 uL/well and plates are incubated for 1 hr at RT, washed 3×, and 100 uL/well of streptavidin labeled alkaline phosphatase (SA-AP) is added to each well. Plates are incubated 30 min at RT. Plates are then washed 3×, and 100 uL/well of p-Nitrophenyl Phosphate, Disodium Salt (PNAP)(Thermo Fisher Scientific) substrate is added. Reactions are stopped and optical density is measured using a colorimetric microplate reader set to 405 nm.

[1] = biological target: T2, CaptureSelect Kappa XL ligand; assay: ELISA, antibody titrated on goat anti-human-IgG, Biotin-KappaXL at 1 ug/ml
T2 construct: also called Biotin-KappaXL; Kappa XL column
Procedure: Binding of the light chain Fab region formats of Table 1a for exemplified IgG hetermabs to Kappa XL ligand may be assessed via ELISA. Briefly, 96-well flat bottom ELISA plates are coated with 2 ug/mL goat anti-human-IgG protein at 100 ul/well and incubated overnight at 4° C. The following day, plates are washed 3× with wash buffer (0.05% PBS-Tween 20) and blocked for 1 hr with blocking buffer (casein, 200 μL/well) at room temperature (RT). Plates are washed 3× with wash buffer, and binding proteins (as shown in Table 5) are added at 10 μg/mL and serially diluted at 1:3 at 100 uL/well in DPBS (Dulbecco's HyClone). Plates are incubated at RT for 1 hr, are washed 3× with wash buffer and Biotin-KappaXL is added at 1 ug/ml at 100 uL/well. Plates are then incubated for 1 hr at RT, washed 3×, and 100 uL/well of SA-AP is added to each well and incubated 30 min at RT. Plates are then washed 3×, and 100 uL/well PNAP substrate is added. Reactions are stopped and the optical density is measured using a colorimetric microplate reader set to 405 nm.

[2] = biological target: T2, CaptureSelect Kappa XL ligand; assay: CaptureSelect Kappa XL affinity column after Protein A
Excerpt: Multispecific binding proteins of the present disclosure, in clarified medium or recovered from Protein A purification, may be subjected to a second purification step using a CaptureSelect™ Kappa XL (Thermo Fisher Cat. #494321001) pre-packed affinity column. Briefly, multispecific binding proteins of the present disclosure recovered from Protein A purification are subjected to a Kappa XL affinity column which has been equilibrated with a compatible buffer, such as phosphate buffered saline (PBS) at pH 7.4. The column is then washed to remove nonspecific binding components. The bound multispecific binding protein is eluted, for example, by pH gradient (such as 20 mM Tris buffer pH 7.0 to 10 mM sodium citrate buffer pH 3.0). Binding protein fractions are detected, such as by UV absorbance or SDS-PAGE, and then are pooled.
Percent flow through (% F T) and percent elution of exemplified heteromabs of the present disclosure following kappa XL column purification essentially as described herein is assessed. Briefly, various antibody formats (as set forth in Table 3) are subjected to Kappa XL column. Flow through material is considered to comprise of impurities, such as homodimers, or misassembled antibodies, whereas the Kappa XL ligand bound material (elution material) is considered to be the correctly assembled bispecific antibody.

B1: cMet-BAH10 parental IgG1 heteromab (bispecific antibody)
heavy 1: EVQLVESGGGLVQPGGSLRLSCAASGYTFTSYWLHWVRKAPGKGLEWVGMIDPSNSDTRFNPEFKDRFTISADTSKNTAYLQMNSLRAEDTAVYYCATYRSYVTPLDYWGQGTLVTVSSASTKGPSVFPLAPSSKSTSGGTAALGCLVKDYFPEPVTVSWNSGALTSGVATGPAVLQSSGLYSLSSVVTVPSSSLGTQTYICNVNHKPSNTKVDKKVEPKSCDKTHTCPPCPAPEAAGGPSVFLFPPKPKDTLMISRTPEVTCVVVDVSHEDPEVKFNWYVDGVEVHNAKTKPREEQYNSTYRVVSVLTVLHQDWLNGKEYKCKVSNKALPAPIEKTISKAKGQPREPQVYTLPPSREEMTDNQVSLTCLVKGFYPSDIAVEWESNGQPENNYKTTPPVLMSDGSFFLASKLTVDKSRWQQGNVFSCSVMHEALHNHYTQKSLSLSPGK
light 1: RIQMTQSPSSLSASVGDRVTITCKSSQSLLYTSSQKNYLAWYQDKPGKAPKLLIYWASTRESGVPSRFSGSGSGTDFTLTISSLQPEDFATYYCQQYYAYPWTFGQGTKVEIKRTVAAPSVFIFPPSDEQLKSGTASVVCYLNNFYPREAKVQWKVDNALQSGNSQESVTEQDSKDSTYSLWSTLTLSKADYEKHKVYACEVTHQGLSSPVTKSFNRGEC
heavy 2: QVQLVQSGAEVKKPGSSVKVSCKASGYTFTTYYLHWVRYAPGQGLEWMGWIYPGNVHAQYNEKFKGRVTITADKSTSTAYMELSSLRSEDTAVYYCARSWEGFPYWGRGTTVTVSSASTKGPSVFPLAPCSKSTSGGTAALGCLVKDYFPEPVTVSWNSGALTSGVHTFPAVLQSSGLYSLSSVVTVPSSSLGTQTYICNVNHKPSNTKVDKKVEPDSGDKTHTCPPCPAPEAAGGPSVFLFPPKPKDTLMISRTPEVTCVVVDVSHEDPEVKFNWYVDGVEVHNAKTKPREEQYNSTYRVVSVLTVLHQDWLNGKEYKCKVSNKALPAPIEKTISKAKGQPRRPRVYTLPPSREEMTKNQVSLVCLVKGFYPSDIAVEWESNGQPENNYKTTPPVLDSDGSFFLYSVLTVDKSRWQQGNVFSCSVMHEALHNHYTQKSLSLSPGK
light 2: DIQMTQSPSSLSASVGDRVTITCKASQNVGINVAWYQRKPGDAPKSLISSASYRYSGVPSRFSGSGSGTDFTLTISSLQPEDFATYFCQQYDTYPFTFGQGTKVEIKRTVAAPSVFIFPPSKEQLKSGTASVVCLLNNFYPREAKVQWKVDNALQSGNSQESVTEQDSKDSTYSLSSTLTLSKADYEKHKVYACEVTHQGLSSPVTKSFNRGEC
notes: control; also called cMet-BAH10 IgG1 heteromab; cMet-BAH10 IgG heteromab
For B1, the EC50 (Protein A) was 480 pM, the EC50 [1] was 570 pM and the “% Elution” value [2] was 94.5%. For the same binder, the “% Flow Through (FT)” value [2] was 5.5%.
